The values below come from publication PMC9256704, “Oncogenic TRIB2 interacts with and regulates PKM2 to promote aerobic glycolysis and lung cancer cell procession” (Cell Death Discovery, 2022).

By Kd is commonly meant the free concentration of one partner at which half of the binding sites on the other are occupied at equilibrium, for simple one-to-one binding. Low values mean a tighter complex, high ones a looser complex.

For this experiment, the target named is T1, PKM2 (ab89364, Abcam) (human, UniProt P14618 1-531).
T1 construct: human M2 isoform of pyruvate kinase (PKM2), bought recombinant protein; see the vendor's sheet for ab89364; also called PKM2 protein; source: bought: Abcam (ab89364)
The experiment is described as follows: BLI; biotinylated TRIB2 loaded onto SSA biosensors, blocked with biocytin (5 μg/ml) for 60 s; PKM2 diluted in PBS as analyte; Octet data analysis software. Particulars: both partners purified. (In general: BLI is a label-free optical method that tracks binding on a fibre tip over time.)

T1 sequence (P14618 whole entry, canonical isoform): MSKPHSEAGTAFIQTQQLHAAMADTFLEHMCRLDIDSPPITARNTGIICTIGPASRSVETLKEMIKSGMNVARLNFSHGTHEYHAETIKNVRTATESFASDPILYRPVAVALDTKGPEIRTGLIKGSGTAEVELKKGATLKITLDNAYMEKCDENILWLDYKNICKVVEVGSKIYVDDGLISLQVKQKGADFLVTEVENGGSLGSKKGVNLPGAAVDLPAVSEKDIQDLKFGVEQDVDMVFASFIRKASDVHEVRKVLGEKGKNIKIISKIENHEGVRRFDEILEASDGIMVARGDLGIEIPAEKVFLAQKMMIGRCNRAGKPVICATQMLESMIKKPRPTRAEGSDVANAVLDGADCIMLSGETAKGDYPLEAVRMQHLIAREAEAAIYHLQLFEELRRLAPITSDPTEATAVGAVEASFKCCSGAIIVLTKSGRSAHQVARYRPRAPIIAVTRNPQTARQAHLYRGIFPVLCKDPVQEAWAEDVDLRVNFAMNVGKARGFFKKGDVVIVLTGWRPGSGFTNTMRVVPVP

B1: recombinant TRIB2 protein (TP301210, OriGene), biotinylated (natural protein, human, UniProt Q92519 1-343, looked up)
chain: MNIHRSTPITIARYGRSRNKTQDFEELSSIRSAEPSQSFSPNLGSPSPPETPNLSHCVSCIGKYLLLEPLEGDHVFRAVHLHSGEELVCKVFDISCYQESLAPCFCLSAHSNINQITEIILGETKAYVFFERSYGDMHSFVRTCKKLREEEAARLFYQIASAVAHCHDGGLVLRDLKLRKFIFKDEERTRVKLESLEDAYILRGDDDSLSDKHGCPAYVSPEILNTSGSYSGKAADVWSLGVMLYTMLVGRYPFHDIEPSSLFSKIRRGQFNIPETLSPKAKCLIRSILRREPSERLTSQEILDHPWFSTDFSVSNSAYGAKEVSDQLVPDVNMEENLDPFFN
modifications: biotinylated
notes: human Tribbles homologue 2 (TRIB2), bought recombinant protein; also called human TRIB2; source: bought: OriGene (TP301210)
On to B1, for which binding was characterised by a dissociation constant (Kd) of 7.44 nM.
